Results published in patent US20230212587A1, “Mutant Hydroxyphenylpyruvate Dioxygenase Polypeptide, Encoding Gene Thereof and Use Therefor” (Beijing Dabeinong Biotechnology Co., Ltd., priority 2019, published 2023).
Numbering of substitutions follows the chain as printed. Numbers in names are those of the source.

B1: TaHPPD4-02: native HPPD of Triticum aestivum ecotype 4, UniProt A0A3B6NLC6, SEQ ID NO: 195 (protein, listed as Triticum aestivum)
chain: MPPTPTTPAATGAAAVTPEHARPRRMVRFNPRSDRFHTLAFHHVEFWCADAASAAGRFAFALGAPLAARSDLSTGNSVHASQLLRSGNLAFLFTAPYANGCDAATASLPSFSADAARQFSADHGLAVRSIALRVADAAEAFRASVDGGARPAFSPVDLGRGFGFAEVELYGDVVLRFVSHPDGRDVPFLPGFEGVSNPDAVDYGLTRFDHVVGNVPELAPAAAYVAGFTGFHEFAEFTTEDVGTAESGLNSMVLANNSEGVLLPLNEPVHGTKRRSQIQTFLEHHGGSGVQHIAVASSDVLRTLREMRARSAMGGFDFLPPPLPKYYEGVRRIAGDVLSEAQIKECQELGVLVDRDDQGVLLQIFTKPVGDRPTLFLEMIQRIGCMEKDERGEEYQKGGCGGFGKGNFSELFKSIEDYEKSLEAKQSAAVQGS
modifications: TaHPPD4 Amino Acid Sequence
B2: TaHPPD4m-F372A-02: Triticum aestivum ecotype 4 HPPD mutant F372A, SEQ ID NO: 198 (protein)
chain: B1 chain with F365A
modifications: TaHPPD4m-F372A Amino Acid Sequence
B3: TaHPPD5-02: native HPPD of Triticum aestivum ecotype 5, UniProt A0A3B6NNK0, SEQ ID NO: 201 (protein, listed as Triticum aestivum)
chain: MPPTPTTPAATGAAAVTPEHARPRRMVRFNPRSDRFHTLAFHHVEFWCADAASAAGRFAFALGAPLAARSDLSTGNSVHASQLLRSGNLAFLFTAPYANGCDAATASLPSFSADAARQFSADHGLAVRSIALRVADAAEAFRASVDGGARPAFSPVDLGRGFGFAEVELYGDVVLRFVSHPDGRDVPFLPGFEGVSNPDAVDYGLTRFDHVVGNVPELAPAAAYVAGFTGFHEFAEFTTEDVGTAESGLNSMVLANNSEGVLLPLNEPVHGTKRRSQIQTFLEHHGGSGVQHIAVASSDVLRTLREMRARSAMGGFDFLPPPLPKYYEGVRRIAGDVLSEAQIKECQELGVLVDRDDQGVLLQIFTKPVGDRPTLFLEMIQRIGCMEKDELFKSIEDYEKSLEAKQSAAVQGS
modifications: TaHPPD5 Amino Acid Sequence
B4: TaHPPD5m-F372A-02: Triticum aestivum ecotype 5 HPPD mutant F372A, SEQ ID NO: 204 (protein)
chain: B3 chain with F365A
modifications: TaHPPD5m-F372A Amino Acid Sequence
B5: TaHPPD2-02: native HPPD of Triticum aestivum ecotype 2, UniProt Q45FE8, SEQ ID NO: 183 (protein, listed as Triticum aestivum)
chain: MPPTPTTPAATGAGAAAAVTPEHARPRRMVRFNPRSDRFHTLSFHHVEFWCADAASAAGRFAFALGAPLAARSDLSTGNSVHASQLLRSGNLAFLFTAPYANGCDAATASLPSFSADAARRFSADHGLAVRSIALRVADAAEAFRASVDGGARPAFSPVDLGRGFGFAEVELYGDVVLRFVSHPDDTDVPFLPGFEGVSNPDAVDYGLTRFDHVVGNVPELAPAAAYVAGFAGFHEFAEFTTEDVGTAESGLNSMVLANNSEGVLLPLNEPVHGTKRRSQIQTFLEHHGGSGVQHIAVASSDVLRTLREMRARSAMGGFDFLPPRCRKYYEGVRRIAGDVLSEAQIKECQELGVLVDRDDQGVLLQIFTKPVGDRPTLFLEMIQRIGCMEKDERGEEYQKGGCGGFGKGNFSELFKSIEDYEKSLEAKQSAAVQGS
modifications: TaHPPD2 Amino Acid Sequence
B6: TaHPPD3-02: native HPPD of Triticum aestivum ecotype 3, UniProt A0A3B6PKV0, SEQ ID NO: 189 (protein, listed as Triticum aestivum)
chain: B5 chain with G14A, S43A, S291P, R325P, C326L, R327P, G435A
modifications: TaHPPD3 Amino Acid Sequence
B7: TaHPPD2m-F372A-02: Triticum aestivum ecotype 2 HPPD mutant F372A, SEQ ID NO: 186 (protein)
chain: B5 chain with F368A
modifications: TaHPPD2m-F372A Amino Acid Sequence
B8: TaHPPD3m-F372A-02: Triticum aestivum ecotype 3 HPPD mutant F372A, SEQ ID NO: 192 (protein)
chain: B5 chain with G14A, S43A, S291P, R325P, C326L, R327P, F368A, G435A
modifications: TaHPPD3m-F372A Amino Acid Sequence

What follows are molecules tested on Arabidopsis thaliana T1 plants (assay: Topramezone tolerance of transgenic Arabidopsis thaliana T1 plants (pesticide damage grade by bleached leaf area, score, resistance evaluation)). Conditions: topramezone 25 g ai/ha (1x); HPPDs from ecotypes of Triticum aestivum.
Type: in vivo
In short: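 Herbicide tolerance was judged per plant on a bleaching scale (grade 0 no bleaching to grade 3 fully bleached) 7 DAT. Topramezone doses were 0, 25, 50 and 100 g ai/ha on 18-day-old T1 and wild-type plants.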

With B1 the Resistance evaluation was “non-resistant (non-resistant plants (scores 68-100))”.
B2 was tested, and the Resistance evaluation was “highly resistant (highly resistant plants (scores 0-15))”.
B3 was tested, and the Resistance evaluation was “non-resistant (non-resistant plants (scores 68-100))”.
With B4 the Resistance evaluation was “highly resistant (highly resistant plants (scores 0-15))”.
For B5, the Resistance evaluation was “non-resistant (non-resistant plants (scores 68-100))”.
For B6, the Resistance evaluation was “non-resistant (non-resistant plants (scores 68-100))”.
In the case of B7, the Resistance evaluation is reported as “highly resistant (highly resistant plants (scores 0-15))”.
In the case of B8, the Resistance evaluation is reported as “highly resistant (highly resistant plants (scores 0-15))”.

Going from B1 to B2, the Scores falls from 92 to 0.

Going from B3 to B4, the Scores falls from 83 to 0.

B5 and B6 are the same in Scores: 100 for the first, 100 for the second.

B7 and B8 are the same in Scores: 0 for the first, 0 for the second.

Same assay, conditions: topramezone 25 g ai/ha (1x); number of plants; HPPDs from ecotypes of Triticum aestivum

Going from B1 to B2, the “Classification and statistics of pesticide damage grade: Grade 0” value (“Classification and statistics … Grade 0” below) rises from 0 to 16.

First: B3
Second: B4
The “Classification and statistics … Grade 0” value of the first is lower: 0 for the first, 16 for the second.

B5 and B6 are the same in “Classification and statistics … Grade 0” value: 0 for the first, 0 for the second.

B7 and B8 are the same in “Classification and statistics … Grade 0” value: 16 for the first, 16 for the second.

B1 and B2 are the same in “Classification and statistics of pesticide damage grade: Grade 1” value (shortened to “Classification and statistics … Grade 1”): 0 for the first, 0 for the second.

B3 and B4 are the same in “Classification and statistics … Grade 1” value: 0 for the first, 0 for the second.

B5 and B6 are the same in “Classification and statistics … Grade 1” value: 0 for the first, 0 for the second.

B7 and B8 are the same in “Classification and statistics … Grade 1” value: 0 for the first, 0 for the second.

Going from B1 to B2, the “Classification and statistics of pesticide damage grade: Grade 2” value (“Classification and statistics … Grade 2” for short) falls from 4 to 0.

Going from B3 to B4, the “Classification and statistics … Grade 2” value falls from 8 to 0.

B5 and B6 are the same in “Classification and statistics … Grade 2” value: 0 for the first, 0 for the second.

B7 and B8 are the same in “Classification and statistics … Grade 2” value: 0 for the first, 0 for the second.

Going from B1 to B2, the “Classification and statistics of pesticide damage grade: Grade 3” value (“Classification and statistics … Grade 3” below) falls from 12 to 0.

Going from B3 to B4, the “Classification and statistics … Grade 3” value falls from 8 to 0.

B5 and B6 are the same in “Classification and statistics … Grade 3” value: 16 for the first, 16 for the second.

B7 and B8 are the same in “Classification and statistics … Grade 3” value: 0 for the first, 0 for the second.

Same assay, conditions: topramezone 100 g ai/ha (4x); HPPDs from ecotypes of Triticum aestivum

B1 was tested, and the Resistance evaluation was “non-resistant (non-resistant plants (scores 68-100))”.
For B2, the Resistance evaluation was “highly resistant (highly resistant plants (scores 0-15))”.
In the case of B3, the Resistance evaluation is reported as “non-resistant (non-resistant plants (scores 68-100))”.
For B4, the Resistance evaluation was “moderately resistant (moderately resistant plants (scores 16-33))”.
For B5, the Resistance evaluation was “non-resistant (non-resistant plants (scores 68-100))”.
In the case of B6, the Resistance evaluation is reported as “non-resistant (non-resistant plants (scores 68-100))”.
With B7 the Resistance evaluation was “moderately resistant (moderately resistant plants (scores 16-33))”.
With B8 the Resistance evaluation was “highly resistant (highly resistant plants (scores 0-15))”.

First: B1
Second: B2
The Scores of the first is higher: 100 for the first, 10 for the second.

Compared with B3, B4 is lower in Scores: 96 for the first, 23 for the second.

B5 and B6 are the same in Scores: 100 for the first, 100 for the second.

Going from B7 to B8, the Scores falls from 17 to 8.

Same assay, conditions: topramezone 100 g ai/ha (4x); number of plants; HPPDs from ecotypes of Triticum aestivum

Going from B1 to B2, the “Classification and statistics … Grade 0” value rises from 0 to 11.

Going from B3 to B4, the “Classification and statistics … Grade 0” value rises from 0 to 6.

B5 and B6 are the same in “Classification and statistics … Grade 0” value: 0 for the first, 0 for the second.

Compared with B7, B8 is higher in “Classification and statistics … Grade 0” value: 8 for the first, 12 for the second.

Going from B1 to B2, the “Classification and statistics … Grade 1” value rises from 0 to 5.

Compared with B3, B4 is higher in “Classification and statistics … Grade 1” value: 0 for the first, 9 for the second.

B5 and B6 are the same in “Classification and statistics … Grade 1” value: 0 for the first, 0 for the second.

Going from B7 to B8, the “Classification and statistics … Grade 1” value falls from 8 to 4.

B1 and B2 are the same in “Classification and statistics … Grade 2” value: 0 for the first, 0 for the second.

First: B3
Second: B4
The “Classification and statistics … Grade 2” value of the first is higher: 2 for the first, 1 for the second.

B5 and B6 are the same in “Classification and statistics … Grade 2” value: 0 for the first, 0 for the second.

B7 and B8 are the same in “Classification and statistics … Grade 2” value: 0 for the first, 0 for the second.

Going from B1 to B2, the “Classification and statistics … Grade 3” value falls from 16 to 0.

First: B3
Second: B4
The “Classification and statistics … Grade 3” value of the first is higher: 14 for the first, 0 for the second.

B5 and B6 are the same in “Classification and statistics … Grade 3” value: 16 for the first, 16 for the second.

B7 and B8 are the same in “Classification and statistics … Grade 3” value: 0 for the first, 0 for the second.
